Measured values published in article PMC10017356 (2023).
No end group written: not given here. *: point of attachment. Dansyl = CN(C)c1cccc2c(S(=O)(=O)*)cccc12

T1: Presenilin-1 peptide (Homo sapiens)
T1 chain: Dansyl-AFHQFYI

B1: X11 PDZ1-PDZ2-ΔC 651-827 (protein)
chain: SENCKDVFIEKQKGEILGVVIVESGWGSILPTVIIANMMHGGPAEKSGKLNIGDQIMSINGTSLVGLPLSTCQSIIKGLKNQSRVKLNIVRCPPVTTVLIRRPDLRYQLGFSVQNGIICSLMRGGIAERGGVRVGHRIIEINGQSVVATPHEKIVHILSNAVGEIHMKTMPAAMYRL
B2: X11 PDZ1 651-744 (protein)
chain: SENCKDVFIEKQKGEILGVVIVESGWGSILPTVIIANMMHGGPAEKSGKLNIGDQIMSINGTSLVGLPLSTCQSIIKGLKNQSRVKLNIVRCPP

Target: T1, Presenilin-1 peptide
Test: stopped-flow kinetics (FRET)

Binder | Kd
B1 | 7 µM
B2 | 5.5 µM
